# Measured values: patent US20050158807A1
# Biological target: Fas receptor on cultured mouse thyroid follicular cells (mouse) (UniProt P25446)
# Test: cell-based or functional assay
# UniProt P25446, sequence (P25446 22-327): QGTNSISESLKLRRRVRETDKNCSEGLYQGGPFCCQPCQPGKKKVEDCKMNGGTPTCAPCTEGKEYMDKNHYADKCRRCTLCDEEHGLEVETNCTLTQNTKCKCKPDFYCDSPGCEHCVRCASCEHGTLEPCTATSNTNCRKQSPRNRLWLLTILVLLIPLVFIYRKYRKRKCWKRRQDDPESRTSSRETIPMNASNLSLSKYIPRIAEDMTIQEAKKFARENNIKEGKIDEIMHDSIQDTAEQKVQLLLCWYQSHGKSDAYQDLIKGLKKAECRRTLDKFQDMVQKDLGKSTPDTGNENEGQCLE
substance,measurement,value
clone Jo2 anti-Fas antibody (Pharmingen),"percentage of proliferation increase of anti-Fas versus control cultures ([3H] thymidine), 48 h",37%
same,"percentage of proliferation increase of anti-Fas versus control cultures ([3H] thymidine), 72 h",49%
same,"percentage of proliferation increase of anti-Fas versus control cultures ([3H] thymidine), 96 h",61%
